These results are taken from US20250144228A1 (published 2025).

For assay [1], the target named is A/Wisconsin/629-D00015/2009 (H1N1)pdm09 (influenza A virus).
Assay [2] addresses A/Hong Kong/8/1968 (H3N2) (influenza A virus).
Assay [3] concerns the target a monoclonal mouse IgM, κ Isotype Ctrl (mouse). Briefly: ELISA. On the technique in general: An ELISA detects its analyte on a solid surface through an enzyme-linked reagent.
For the next assay, the target named is mouse polyclonal IgG (mouse). Nature of the assay: ELISA.
The next assay concerns the target T1, mouse polyclonal IgA (mouse, UniProt P11911).
T1 sequence (P11911 whole entry, looked up): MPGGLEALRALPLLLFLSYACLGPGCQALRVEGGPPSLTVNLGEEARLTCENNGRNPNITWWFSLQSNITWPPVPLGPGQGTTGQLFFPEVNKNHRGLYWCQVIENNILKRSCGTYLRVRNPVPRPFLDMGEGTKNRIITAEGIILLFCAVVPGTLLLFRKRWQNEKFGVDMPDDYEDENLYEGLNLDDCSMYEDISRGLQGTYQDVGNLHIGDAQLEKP
Nature of the assay: ELISA.

Assay [4] has as its target T2, P. falciparum MSP-1 subunit p42 (plate-bound, isolated) (Plasmodium falciparum, UniProt Q8I0U8 1327-1699).
T2 chain: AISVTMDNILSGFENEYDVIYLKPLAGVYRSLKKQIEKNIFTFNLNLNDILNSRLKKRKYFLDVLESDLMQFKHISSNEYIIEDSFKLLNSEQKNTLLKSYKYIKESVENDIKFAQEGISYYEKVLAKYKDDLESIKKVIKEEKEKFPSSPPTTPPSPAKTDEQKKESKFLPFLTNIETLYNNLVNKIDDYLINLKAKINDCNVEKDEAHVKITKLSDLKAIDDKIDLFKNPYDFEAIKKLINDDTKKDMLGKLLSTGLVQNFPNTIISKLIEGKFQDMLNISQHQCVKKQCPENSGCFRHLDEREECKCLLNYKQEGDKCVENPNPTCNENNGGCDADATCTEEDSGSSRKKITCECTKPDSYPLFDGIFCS
Briefly: ELISA.

In assay [5] the target is T3, P. falciparum MSP-1 subunit p83 (plate-bound, isolated) (Plasmodium falciparum, UniProt Q8I0U8 20-722).
T3 chain: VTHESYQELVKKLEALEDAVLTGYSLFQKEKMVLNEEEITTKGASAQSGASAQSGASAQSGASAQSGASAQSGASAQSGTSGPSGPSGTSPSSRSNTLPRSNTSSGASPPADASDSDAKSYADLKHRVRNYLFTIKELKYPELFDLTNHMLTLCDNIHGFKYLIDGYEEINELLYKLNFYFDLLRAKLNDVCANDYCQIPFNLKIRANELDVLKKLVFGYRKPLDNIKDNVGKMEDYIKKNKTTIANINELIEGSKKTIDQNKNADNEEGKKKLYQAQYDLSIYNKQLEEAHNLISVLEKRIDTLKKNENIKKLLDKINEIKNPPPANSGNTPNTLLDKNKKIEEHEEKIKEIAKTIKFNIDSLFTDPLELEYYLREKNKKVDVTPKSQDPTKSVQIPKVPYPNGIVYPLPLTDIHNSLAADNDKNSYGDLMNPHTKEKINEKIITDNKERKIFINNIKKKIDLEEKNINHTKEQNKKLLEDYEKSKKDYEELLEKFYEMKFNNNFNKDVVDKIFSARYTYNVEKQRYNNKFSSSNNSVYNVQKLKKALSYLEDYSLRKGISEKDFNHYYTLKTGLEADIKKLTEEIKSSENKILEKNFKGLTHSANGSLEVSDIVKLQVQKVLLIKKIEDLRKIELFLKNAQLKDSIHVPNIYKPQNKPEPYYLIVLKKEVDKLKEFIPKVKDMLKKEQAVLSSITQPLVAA
Nature of the assay: ELISA.

Another assay has as its target mouse IgG2b (mouse). Nature of the assay: ELISA.
The next assay deals with hemagglutinin (influenza A virus).
Assay [6] deals with Influenza A virus - A/Hong Kong/8/1968 (H3N2) (influenza A virus).

B1: VHHkappa-SD36-biotin (genetic fusion) (bispecific antibody)
chain: QVQLVESGGGWVQPGGSLRLSCAASGFTFSDTAMMWVRQAPGKGREWVAAIDTGGGYTYYADSVKGRFTISRDNAKNTLYLQMNSLKPEDTARYYCAKTYSGNYYSNYTVANYGTTGRGTLVTVSSAAAGGGGSGGGGSGGGGSEVQLVESGGGLVQAGGSLKLSCAASGRTYAMGWFRQAPGKEREFVAHINALGTRTYYSDSVKGRFTISRDNAKNTEYLEMNNLKPEDTAVYYCTAQGQWRAAPVAVAAEYEFWGQGTQVTVSSGGLPETGGHHHHHH
Consider B1, for which the Kd in [1] came out at 59.7 nM; in [2] it was 1.8 nM.

B2: VHHkappa (mouse)-SD36-biotin (bispecific antibody)
chain: B1 chain
B2: the Kd in [3] was 0.0102 nM; with mouse polyclonal IgG, 8.3 pM; with mouse polyclonal IgA it was 0.434 nM.

B3: anti-p42 A6 VHH (P. falciparum MSP-1 specific) (VHH)
VHH: QVQLVESGGGLVQAGGSLRLSCAASARTFSYYGAAWFRQAPGKEREFVAAVSWNGDDTYYADSVKGRFTISRDNTKNTVSLQMNALKPEDTAVYYCEAAAYGRDWRQSANYVYWGQGTQVTVSS
Regarding B3, in assay [4], the Kd was found to be 1.96 nM.

B4: anti-p83 B4 VHH (P. falciparum MSP-1 specific) (VHH)
VHH: QLQLVESGGGLAQAGGSLRLSCAASGRTSSTKPMGWFRQAPGLEREFVASISWLGGSTLYSDSVKGRFTISRDNAKNTVYLQMNSLKSEDTAVYYCAGGTSAYSGRDSSRYEYWGQGTQVTVSS
For B4, the Kd in [5] was 1.81 nM.

B5: SD36-biotin (VHH)
VHH: EVQLVESGGGLVQAGGSLKLSCAASGRTYAMGWFRQAPGKEREFVAHINALGTRTYYSDSVKGRFTISRDNAKNTEYLEMNNLKPEDTAVYYCTAQGQWRAAPVAVAAEYEFWGQGTQVTVSS
Regarding B5, the equilibrium dissociation constant (Kd) in assay [1] stood at 18.7 nM; in assay [2], 1.3 nM.

B6: VHHkappa-SD36-biotin-1 (bispecific antibody, V domains shown)
V domain 1: QVQLVESGGGWVQPGGSLRLSCAASGFTFSDTAMMWVRQAPGKGREWVAAIDTGGGYTYYADSVKGRFTISRDNAKNTLYLQMNSLKPEDTARYYCAKTYSGNYYSNYTVANYGTTGRGTLVTVSS
V domain 2: B5 VHH
In the assay with mouse IgG2b, B6 gave a Kd of 2 nM.

B7: VHHkappa-SD36-biotin-2 (bispecific antibody, V domains shown)
V domain 1: B6 V domain 1
V domain 2: B5 VHH
The molecule B7 displayed an equilibrium dissociation constant (Kd) in the assay with mouse IgG2b of 2.4 nM.

B8: VHHkappa-SD36 (bispecific antibody, V domains shown)
V domain 1: B6 V domain 1
V domain 2: B5 VHH
Consider B8, for which the Kd with hemagglutinin turned out to be 15.5 nM; in assay [6], 0.6 nM.

B9: VHHkappa (mouse)-biotin (VHH)
VHH: B6 V domain 1
Turning to B9, the Kd in assay [3] was determined as 0.0112 nM; in the assay with mouse polyclonal IgG, 7.2 pM; with mouse polyclonal IgA it was 0.508 nM.

B10: VHHkappa-biotin (VHH)
VHH: B6 V domain 1
B10: binding in the assay with mouse IgG2b was put at a Kd of 2.1 nM.

B11: anti-p42 G11 VHH (P. falciparum MSP-1 specific) (VHH)
VHH: QVQLVETGGGLVQAGGSLRLSCVVSGRSLILYGMGWFRQAPGKEREFVAGIVWNGGWTYYADSVKGRFTISRDTAKNTVYLQMNSLKPEDTAVYSCAAGPGDGRRRVAPAEYNYWGQGTQVTVSS
For the molecule B11, in [4], binding was put at a Kd of 0.52 nM.

One may read the Kd as the free concentration of one partner at which half of the binding sites on the other are occupied at equilibrium, for simple one-to-one binding. A high value points to a looser complex.
